Measurements: patent US20220372200

Columns and labels:
[1] = test system: T1, KLA peptide acrylamide monomer (KLAAm)
T1 sequence: KLAKLAKKLAKLAK

[2] = test system: T2, poly[(KLAAm10-co-DMA30)-b-(DAAm70-co-DMA30)] (NP1)
T2 sequence: KLAKLAKKLAKLAK

[3] = test system: T3, poly[(KLAAm10-co-DMA30)-b-(DAAm140-co-DMA60)] (NP2)
T3 sequence: KLAKLAKKLAKLAK

[4] = test system: T4, poly[(KLAAm10-co-DMA10)-b-(DAAm140-co-DMA60)] (NP4)
T4 sequence: KLAKLAKKLAKLAK

[5] = test system: T5, poly[(KLAAm10-co-DMA30)-b-(DAAm280-co-DMA120)] (NP3)
T5 sequence: KLAKLAKKLAKLAK

[6] = test system: T6, poly[(KLAAm10-co-DMA10)-b-(DAAm280-co-DMA120)] (NP5)
T6 sequence: KLAKLAKKLAKLAK

poly(KLAAm10-co-DMA10) = test system: T7, poly(KLAAm10-co-DMA10)
T7 sequence: KLAKLAKKLAKLAK

[7] = target: T8, poly(PepAm21-co-DMA71) (P4)
T8 chain: GPLGLAGG

Molecule: trypsin
- percent cleavage by HPLC [1]: the KLA peptide underwent fast degradation, reaching 100% cleavage within 1 h
- percent of KLA peptide left uncleaved after 1 h (HPLC) [2]: more than 70% of KLA peptide survived during the first hour of cleavage
- percent of KLA peptide left uncleaved after 1 h (HPLC) [3]: more than 70% of KLA peptide survived during the first hour of cleavage
- percent of KLA peptide left uncleaved after 1 h (HPLC) [4]: more than 70% of KLA peptide survived during the first hour of cleavage
- percent of KLA peptide left uncleaved after 1 h (HPLC) [5]: more than 70% of KLA peptide survived during the first hour of cleavage
- percent of KLA peptide left uncleaved after 1 h (HPLC) [6]: more than 70% of KLA peptide survived during the first hour of cleavage
- percent of side-chain peptides cleaved by HPLC (poly(KLAAm10-co-DMA10)): more than 90% of the side-chain peptides were cleaved within 1 h

B1: thermolysin (protein)
chain: ITGTSTVGVGRGVLGDQKNINTTYSTYYYLQDNTRGNGIFTYDAKYRTTLPGSLWADADNQFFASYDAPAVDAHYYAGVTYDYYKNVHNRLSYDGNNAAIRSSVHYSQGYNNAFWNGSQMVYGDGDGQTFIPLSGGIDVVAHELTHAVTDYTAGLIYQNESGAINEAISDIFGTLVEFYANKNPDWEIGEDVYTPGISGDSLRSMSDPAKYGDPDHYSKRYTGTQDNGGVHINSGIINKAAYLISQGGTHYGVSVVGIGRDKLGKIFYRALTQYLTPTSNFSQLRAAAVQSATDLYGSTSQEVASVKQAFDAVGVK
- cleavage of side-chain peptides monitored by HPLC [7]: the polypeptide brushes were rapidly cleaved within 1 hour under the investigated conditions
